Here are results for 40 sequences from the nanobody polyreactivity screen of Harvey et al. (2022).

A short description of the data set: yeast display, Sf9 membrane polyspecificity reagent, FACS + sequencing; frameworks hold sequencing errors. The gist of the method:
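Galactose induction of a Saccharomyces cerevisiae BJ5465 synthetic nanobody display library ran 36–48 hours. The cells were then stained for 1 hour at 4 °C with 10% biotinylated, detergent-solubilized Sf9 membrane reagent, pulled down on streptavidin microbeads and FACS-sorted into low and high (top ~1%) gates on expression and reagent-binding fluorescence. Labels for polyreactivity follow the gate of origin.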
With “QVQLVESGGGLVQAGGSLRLSCAASGRTFRVYTMGWYRQAPGKERELVAAISSRGGSTYYADSVKGRFTISRDNAKNTVYLQMYSLKPEDTAVYYCAASKFRSGGYDYWGQGTQVTVSS”, the “polyreactivity (PSR sort gate)” value is reported as “high polyreactivity”. The value for “QVQLVESGGGLVQAGGSLRLSCAASGRTFRWYAMGRYRQAPGKERELVAVISRGGGSTTYADSVKGRFTISRDNAKNTVYLQMNSLKPEDTAVYYCAAQWSGSVGSRPMYYWGQGSQVTVSS” was “high polyreactivity”; that for “QVQLVESGGGLVQAGGSLRLSCAASGRTFRWYTMGWYRQAPGKEREFVAAITWSGSSTNYADSVKGRFTISRDNEKNTVYLQMNSLKPEDTAFYYCAAENRRRRDDYWGQGTQVTVSS” was “high polyreactivity”; that for “QVQLVESGGGLVQAGGSLRLSCAASGRTFRYNALGWYRPAPGKERELVASITSGGSTNYADSVKGRFTMSRDNAKNTVYLQMNSLKPEDTAVYYCASDERRPYWQHSIGSGRPFDYWGQGTQVTVSS” was “low polyreactivity”. The value for “QVQLVESGGGLVQAGGSLRLSCAASGRTFRYNAMGWYRQAPGKERELVAAITQSGGSTYYADSVWGRFTISRDNAKNTVYLQMNSLKPDDTAVYYCAKVRERINYDYWGQGTQVTVSS” was “low polyreactivity”. Under “QVQLVESGGGLVQAGGSLRLSCAASGRTFRYNAMGWYRQAPGKERELVAAITWGGGSTYYADSVKGRFTISRDNAKYTVYLQMNSLKPEDTAVYYCNADYIGNYQSIYQYDYWGQGTQVTVSS” stands “low polyreactivity”; under “QVQLVESGGGLVQAGGSLRLSCAASGRTFRYNAMGWYRQAPGKERELVASISWRGGSTYYADSVKGRFTISRDNAKNTVYLPMNSLKPEDTAVYYCAADAAHSEYDDWGQGTQVTVSS”, “high polyreactivity”; under “QVQLVESGGGLVQAGGSLRLSCAASGRTFRYNTMGWYRQAPGKERELVAALTYRGGRTYYADSVKGRFTISRDHAKNTVYLQMNSLKPEDTAVYYCARDYYGSVRFDHWGQGTQVTVSS”, “high polyreactivity”. As for “QVQLVESGGGLVQAGGSLRLSCAASGRTFRYNTMGWYRQAPGKERELVARITRSGGSTYYADSVKGRFTISRDNAKNTVYLQMNSLKPEDTAVYYCAAVPILVYRWFQSYTGDYDYWGQGTQVTVSS”, the “polyreactivity (PSR sort gate)” value is listed as “low polyreactivity”. The value for “QVQLVESGGGLVQAGGSLRLSCAASGRTFRYYAIGWYRQAPGKERELVAAISSSGASTYDAESVKGRFTISRDNAKYTVYLQMNSLKPEDTAVYYCRSGILFYSRYDYWGQGTQVTVSS” was “low polyreactivity”; that for “QVQLVESGGGLVQAGGSLRLSCAASGRTFRYYAMGWNRQAPGKESELVASISRSGGSTYYADSVKGRFTISRDNAKITVYLQMNSLKPEDTAVYYCAVGKGSHYLGFDYWGQGTQVTVSS” was “high polyreactivity”; that for “QVQLVESGGGLVQAGGSLRLSCAASGRTFRYYAMGWYRQAPGKERELVAAIDTSSGSTYYADSVKGRFTISRDNAKNTVYLQMKSLKPEDTAVYYCNATWWIPLFYDYWGQGTQVTVSS” was “low polyreactivity”. With “QVQLVESGGGLVQAGGSLRLSCAASGRTFRYYAMGWYRQAPGKERELVAAITSGGSTYYADSVKGRFTISRDNAKNTVYLLMNSLKPEDTAAYYCAAEYVYPYWNGFDYWGQGTQVTVSS”, the “polyreactivity (PSR sort gate)” value is “low polyreactivity”.

“QVQLVESGGGLVQAGGSLRLSCAASGRTFRYYAMGWYRQAPGKERELVAAITSGGSTYYADSVKGRFTISRDNAKNTVYLQMNSLKPEDTAVYYCNKDFTRTWTRHGDDYWGQGTQVTVSS”: the “polyreactivity (PSR sort gate)” value is reported as “high polyreactivity”. The value for “QVQLVESGGGLVQAGGSLRLSCAASGRTFRYYAMGWYRQAPGKERELVAAITVRTGSTSYADSVKGRFTISRDNAKNTVYLQMNSLKPEDTAVYYCAATSRYFQPPGYGGGRIGYGYWGQGTQVTVSS” was “high polyreactivity”; that for “QVQLVESGGGLVQAGGSLRLSCAASGRTFRYYAMGWYRQAPGKERELVASISRRGGSTHYADSVKVRFTISRDNAKNTVYLQMNSLKPEDTAVYYCAAYGYYTKVTKYDYWGQGTQVTVSS” was “high polyreactivity”.

Consider “QVQLVESGGGLVQAGGSLRLSCAASGRTFRYYTMGWYRQAPGKERELVAAISWSSGSTYYADSVKGRFTISRDNAKNTVYLQMNSLKPEDTAVYYCAASRVRREYVGQDVGFVGYDSWGQGTQVTVSS”, for which the “polyreactivity (PSR sort gate)” value was “high polyreactivity”.

For “QVQLVESGGGLVQAGGSLRLSCAASGRTFRYYTMGWYRQAPGTERELVAAITGGSRTNYADSVKGRFTISRDNAKNTVYLQMNSLKPEDTAVYYCAARRSYLLRYDYWGQGTQVTVSS”, the “polyreactivity (PSR sort gate)” value is reported as “high polyreactivity”.

“QVQLVESGGGLVQAGGSLRLSCAASGRTFSANAMGWYRLAPGKERELVATISSGGRTNYADSVKGRFTISRDNAKNTVYLQMNSLKPEDTAVYYCAKRGPYNRWYGRYDYWGQGTQVTVSS”: the “polyreactivity (PSR sort gate)” value is given as “low polyreactivity”. Under “QVQLVESGGGLVQAGGSLRLSCAASGRTFSANTMGWYRQAPGKERELVAAISKSGGSTYYADSVKGRFTISRDNAKNTVYLQMNSLKPEDTAVYYCAAARNVYRGRVYWGRYDYWGQGTQVTVSS” stands “high polyreactivity”; under “QVQLVESGGGLVQAGGSLRLSCAASGRTFSAYAMGWYRQAPGKERELVATISRSGGRTYYADSVKGRFTISRDNAKNTVYLQMNSLKPEDTAVYYCNARILRDNQGTYDYWGQGTQVTVSS”, “high polyreactivity”. Regarding “QVQLVESGGGLVQAGGSLRLSCAASGRTFSDYAMGWYRQAPGKERELVAAITSSGGSTYYADSVKGRFTISRDNAKNTVYLQMNSLKPEDTAVYYCAKVWYGDRNIDRYDYWGQGTQVTVSS”, the “polyreactivity (PSR sort gate)” value was “high polyreactivity”.

Regarding “QVQLVESGGGLVQAGGSLRLSCAASGRTFSGNAMGWYIQAPRKDRELVAAISSGGSTNYADSVKGRFTISRDNAKNTVYLQMNSLEPEDTAVYYCAADEWRFPSYAYYYWGQGTQVTVSS”, the “polyreactivity (PSR sort gate)” value was “low polyreactivity”. Under “QVQLVESGGGLVQAGGSLRLSCAASGRTFSGNAMGWYRQAPGKEREMVAAITGRGGTTYYADSVKGRFTISRDNAKKTVFLQMNSLKPEDTAVYYCAADTKLSYQWFDYWGQGTQVTVSS” stands “high polyreactivity”. Under “QVQLVESGGGLVQAGGSLRLSCAASGRTFSGYAMGWYRQAPGKEREFVAAISRSGGSTYYADSVKGRFTISRDNAKNTVYLQMNSLKPEDIAVYYCAAQIWYSKRLAYKAYDYWGQGTQVTVSS” stands “high polyreactivity”; under “QVQLVESGGGLVQAGGSLRLSCAASGRTFSGYAMGWYRQAPGKERELVAAITSSGSSTYYADSVKGRFTISRDNAKNTVYLQMNSQKPEDTSVYYCAATPQAHSERYYYQRKYDYWGQGTQVTVSS”, “low polyreactivity”; under “QVQLVESGGGLVQAGGSLRLSCAASGRTFSHYAMGWYRQAPGKERELVAAITWSGGRTYYADSVKGRFTISRDNAKNTVYLQMNSLKPEDTAVYYCAAGKYWPGNYWGQGTQVTVSS”, “high polyreactivity”. Under “QVQLVESGGGLVQAGGSLRLSCAASGRTFSIYAKGWYRQAPGKERELVAAISNGGRTKYADSVKGRFTISRDNAKNTVYLQMNSLKPEDTAVYYCAASSYTHKRYPSPYDYWGQGTQVTVSS” stands “high polyreactivity”.

For the sequence “QVQLVESGGGLVQAGGSLRLSCAASGRTFSKNAMGWYRQAPGKERELVAAISWSGGRTYYADSVKGRFTISRDNAKNTVYLQMNSLKPEDTAVYYCNAYYPGNGPRSTSTRYEYWGQGTQVTVSS”, the “polyreactivity (PSR sort gate)” value is recorded as “high polyreactivity”. Under “QVQLVESGGGLVQAGGSLRLSCAASGRTFSKYAMGWYRQAPGKERELVAAISKRGGSTSYADSVKGRFTISRDNAKNTVYLQMNSLKPEDTAVYYCAADGNRNYLYWPYGYWGQGTQVTVSS” stands “high polyreactivity”; under “QVQLVESGGGLVQAGGSLRLSCAASGRTFSKYTMGWYRQATGKERELVAAIDRSGGSTYYADSVKGRFTISRDNAKNTVYLQMNSLKPEDTAVYYCAAVYYLVPGNYWGHGTQVTVSS”, “high polyreactivity”; under “QVQLVESGGGLVQAGGSLRLSCAASGRTFSNYAMGWYRQAPGKEREFVAGIRYNGGSTYYADSVKGRFTISRDNAKNTVYLQMNSLKPEDTAVYYCAAERWFYRSKFDYWGQGTQVTVSS”, “high polyreactivity”.

On to “QVQLVESGGGLVQAGGSLRLSCAASGRTFSNYMGWYRQAPGKERELVAAISWRGGTTYYADSVKGRFTISRDNAKNTVYLQMNSLKPEDTAVYYCNADVVRYRHWHRGDYWGQGTQVTVSS”, for which the “polyreactivity (PSR sort gate)” value is reported as “low polyreactivity”. As for “QVQLVESGGGLVQAGGSLRLSCAASGRTFSPNAMGWYRQAPGKERELVAAITRSDGRTYYADSVKGRFTISRDNAKNTVYLQMNSLKPEDTAVYYCAVDGYYPPAWYEYDYWGQGTQVTVSS”, the “polyreactivity (PSR sort gate)” value is “high polyreactivity”. Under “QVQLVESGGGLVQAGGSLRLSCAASGRTFSPYAMGWYRQAPGKERELVAAITSRGASTYYADSVKGRFTISRDNAKNTVYLQMNSLKPEDTAVYYCNSGRTYRRLGDYWGQGTQVTVSS” stands “high polyreactivity”; under “QVQLVESGGGLVQAGGSLRLSCAASGRTFSQYAMGWYRQAPGKERELVAAITSAGSTYYADSVKGRFTISRDNAKNTVYLQMKSLKPEDTAVYYCNARGPSRYTGYSSYYWGQGTQVTVSS”, “high polyreactivity”. The value for “QVQLVESGGGLVQAGGSLRLSCAASGRTFSQYAMGWYRQPPGKERELVASISWSGGSTYYADSVKGRFTISRDNAKNTVYLQMNSLKPEDTAVYYCAAVGKGSARSSYPVLYDYWGQGTQVTVSS” was “low polyreactivity”; that for “QVQLVESGGGLVQAGGSLRLSCAASGRTFSRNAMGWYRQAPGKERELVAAISWSGARTYYADSVKGRFTISRDNAKNTVYLQMNSLKPEDTAVYYCAARVPSWKYDYWGQGTQVTVSS” was “high polyreactivity”; that for “QVQLVESGGGLVQAGGSLRLSCAASGRTFSRYAMGWYRQAPGKERELVAAITWSGGDTYYADSVKGRFTISRDNAKNTVYLQMNSLKPEDTAVYYCAAEWGTVGYIRYYAIWSEYDYWGQGTQVTVSS” was “low polyreactivity”.

Turning to “QVQLVESGGGLVQAGGSLRLSCAASGRTFSRYAMGWYRQAPGKERELVATISSSGGTTYYADSVKGRFTISRDNAKNTVYLQLNSLKPEDTAVSYCNSEYKIRTHASGFDYWGQGTQVTVSS”, the “polyreactivity (PSR sort gate)” value is given as “low polyreactivity”.
